Results published in article PMC5445624.
Values belong to the substance of their own block, whether it stands above or below them.

Tests used:
MBP-RNF4(WT) = MBP-RNF4(WT) (UniProt O88846); test: GST pulldown; settings: for ratio to parent: parent: est. 1.0, read off a plot
[1] = target: GST-ETV4(1-335)(WT) SUMOylated with wild-type SUMO3, P28322;P55854; test: GST pulldown; settings: printed grade '++' (legend: ≥50% of RNF4(WT)); parent: +++ (≥80%)

response (% bound relative to input) (MBP-RNF4(WT); ETV4 co-expressed in bacteria with SUMO3(WT), lane 1, parent: 60): 12
ratio to parent (MBP-RNF4(WT); ETV4 co-expressed with SUMO3(WT)): 0.03
Substance: GST-ETV4(1-480)(WT) modified with SUMO3(WT) (from UniProt P28322;P55854) K96R; K222R; K256R; K328R

response (% bound relative to input) (MBP-RNF4(WT); ETV4 co-expressed in bacteria with SUMO3(K11R), lane 5, parent: 49): 3
ratio to parent (MBP-RNF4(WT); ETV4 co-expressed with SUMO3(K11R)): 0.05
Substance: GST-ETV4(1-480)(WT) modified with SUMO3(K11R) (from UniProt P28322;P55854) K96R; K222R; K256R; K328R

percent of parent (% of RNF4(WT)) [1]: 50
Substance: MBP-RNF4(WT) (from UniProt O88846) SIM1,2mut
